Results: article PMC11470125

Biological target: T1, LbuCas13a (Leptotrichia buwadei? (printed only as …, UniProt C7NBY4 1-1159))
T1 sequence: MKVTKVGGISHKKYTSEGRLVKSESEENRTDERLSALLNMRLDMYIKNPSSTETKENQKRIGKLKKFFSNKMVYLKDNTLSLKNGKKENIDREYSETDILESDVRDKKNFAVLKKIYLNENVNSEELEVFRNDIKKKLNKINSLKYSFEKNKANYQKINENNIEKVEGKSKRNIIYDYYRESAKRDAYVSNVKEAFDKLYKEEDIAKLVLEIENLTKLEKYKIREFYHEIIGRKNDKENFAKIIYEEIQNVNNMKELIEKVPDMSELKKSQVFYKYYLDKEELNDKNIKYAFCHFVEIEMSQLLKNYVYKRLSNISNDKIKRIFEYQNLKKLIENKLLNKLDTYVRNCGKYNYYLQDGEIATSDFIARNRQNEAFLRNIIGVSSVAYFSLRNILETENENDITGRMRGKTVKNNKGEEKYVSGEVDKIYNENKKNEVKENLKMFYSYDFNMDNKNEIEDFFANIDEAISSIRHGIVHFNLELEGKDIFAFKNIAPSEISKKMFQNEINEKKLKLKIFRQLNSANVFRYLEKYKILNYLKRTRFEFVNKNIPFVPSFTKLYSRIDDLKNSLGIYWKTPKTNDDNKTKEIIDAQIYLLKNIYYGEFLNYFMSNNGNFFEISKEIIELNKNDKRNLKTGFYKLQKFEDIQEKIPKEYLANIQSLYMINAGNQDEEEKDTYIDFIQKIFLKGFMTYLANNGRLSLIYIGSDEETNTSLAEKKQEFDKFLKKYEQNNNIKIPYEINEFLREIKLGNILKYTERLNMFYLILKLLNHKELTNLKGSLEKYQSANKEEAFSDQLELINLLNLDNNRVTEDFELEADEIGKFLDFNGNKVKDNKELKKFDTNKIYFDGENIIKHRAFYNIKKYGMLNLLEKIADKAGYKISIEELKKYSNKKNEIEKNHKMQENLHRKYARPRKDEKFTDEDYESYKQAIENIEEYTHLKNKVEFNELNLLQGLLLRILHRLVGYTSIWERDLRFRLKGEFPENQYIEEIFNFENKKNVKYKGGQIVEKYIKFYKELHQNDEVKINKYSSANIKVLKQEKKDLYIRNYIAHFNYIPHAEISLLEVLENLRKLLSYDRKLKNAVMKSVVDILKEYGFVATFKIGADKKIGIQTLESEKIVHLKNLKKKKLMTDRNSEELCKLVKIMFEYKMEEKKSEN
Test: competition

B1: Cas13a crRNA with scrambled ssDNA, unlabelled competitor (mixed)
RNA: GAUUUAGACCACCCCAAAAAUGAAGGGGACUAAAACUGGGUGUUUGACAAGUUGUAUUGCAAUC
DNA: TCCACATCATCACTATTAACAAGGAACACTCCGAGGGT
- binding result: no binding
